Laboratory results published in US20220218748.

B1: membrane-bound IdeS (IdeS-tm) (protein)
chain 1: DSFSANQEIRYSEVTPYHVTSVWTKGVTPPAKFTQGEDVFHAPYVANQGWYDITKTFNGKDDLLCGAATAGNMLHWWFDQNKEKIEAYLKKHPDKQKIMFGDQELLDVRKVINTKGDQTNSELFNYFRDKAFPGLSARRIGVMPDLVLDMFINGYYLNVYKTQTTDVNRTYQEKDRRGGIFDAVFTRGDQSKLLTSRHDFKEKNLKEISDLIKKELTEGKALGLSHTYANVRINHVINLWGADFDSNGNLKAIYVTDSDSNASIGMKKYFVGVNSAGKVAISAKEIKEDNIGAQVLGLFTLSTGQDSWNQTN
chain 2: not shown
B2: secreted IdeS (IdeS-sec) (protein)
chain: DSFSANQEIRYSEVTPYHVTSVWTKGVTPPAKFTQGEDVFHAPYVANQGWYDITKTFNGKDDLLCGAATAGNMLHWWFDQNKEKIEAYLKKHPDKQKIMFGDQELLDVRKVINTKGDQTNSELFNYFRDKAFPGLSARRIGVMPDLVLDMFINGYYLNVYKTQTTDVNRTYQEKDRRGGIFDAVFTRGDQSKLLTSRHDFKEKNLKEISDLIKKELTEGKALGLSHTYANVRINHVINLWGADFDSNGNLKAIYVTDSDSNASIGMKKYFVGVNSAGKVAISAKEIKEDNIGAQVLGLFTLSTGQDSWNQTN

Target: human polyclonal IgG

| Protein | cleavage of IgG, SDS-PAGE with Coomassie stain and anti-human Fc blot | cleavage ELISA |
| --- | --- | --- |
| B1 | Cleaved Ig appeared within 5 min and increased over time |  |
| B2 |  | IdeS-sec efficiently cleaved human polyclonal IgG at different time points |
